According to publication doi:10.1101/2020.01.21.914671:

How the values were obtained:
Test in all cases: ITC
[1] = biological target: human Bmf BH3 motif peptide (26-mer) (human)
[2] = biological target: human Bad BH3 motif peptide (26-mer) (human)
[3] = biological target: human Puma BH3 motif peptide (26-mer) (human)
[4] = biological target: human Hrk BH3 motif peptide (26-mer) (human)

## TANV16L K52A lacking the C-terminal 23 residues (domain or fragment)
[1]
  fold reduction in binding against wild type TANV16L: 20 fold
[2]
  fold reduction in binding against wild type TANV16L: 27 fold

## TANV16L R90A lacking the C-terminal 23 residues (domain or fragment)
[3]
  fold reduction in binding against wild type TANV16L: 2 fold
[4]
  fold reduction in binding against wild type TANV16L: 2 fold
